The labels stand for the following.
B1: engineered AgRP peptide 2bA (soluble, N-terminal FLAG tag and C-terminal hexahistidine tag) (peptide)
chain: DYKDDDDKGCVRLHESCLGQQVPCCDPAATCYCLKRGDWKGKCYCRHHHHHH
modifications: ends and bridges not checked; cysteine pairing not given here
notes: also called clone 2bA; αIIbβ3-specific peptide 2bA
B2: engineered AgRP peptide 2bJ (soluble, N-terminal FLAG tag and C-terminal hexahistidine tag) (peptide)
chain: B1 chain with L34N, K40R, G41S
modifications: ends and bridges not checked; cysteine pairing not given here
notes: also called clone 2bJ; αIIbβ3-specific peptide 2bJ
B3: engineered AgRP peptide b3A (soluble, N-terminal FLAG tag and C-terminal hexahistidine tag) (peptide)
chain: B1 chain with L34V, K35G, W39V, K40R, G41R
modifications: ends and bridges not checked; cysteine pairing not given here
notes: also called clone b3A; β3-specific peptide b3A
B4: engineered AgRP peptide b3I (soluble, N-terminal FLAG tag and C-terminal hexahistidine tag) (peptide)
chain: B1 chain with L34R, K35G, W39V, G41L, K42R
modifications: ends and bridges not checked; cysteine pairing not given here
notes: also called clone b3I; β3-specific peptide b3I
B5: engineered AgRP peptide 2bO (soluble, N-terminal FLAG tag and C-terminal hexahistidine tag) (peptide)
chain: B1 chain with L34K, G41E, K42R
modifications: ends and bridges not checked; cysteine pairing not given here
notes: also called clone 2bO; αIIbβ3-specific peptide 2bO

The text below walks through data of US20110136740A1 (Stanford University, published 2011).

Substitutions are numbered along the chain they refer to. Ends that are not written are not given here.

One assay deals with αIIbβ3 integrin on human platelets (human) (UniProt P08514). In words: cell-based or functional assay.
eptifibatide (peptide): the aggregation (IC50; nM), human platelets was 94 nM and the inhibition of ADP-induced platelet aggregation, IC50 came to 80 nM.

The target of a further assay is αIIbβ3 integrin on human platelets (human, UniProt P08514 32-1039; P05106 27-788). In words: cell-based or functional assay.
On to B1, for which the “aggregation (IC50; nM), human platelets” value was found to be 72 nM.

Turning to B2, the “aggregation (IC50; nM), human platelets” value came out at 91 nM.

With B3, the “aggregation (IC50; nM), human platelets” value stood at 50 nM.

As for B4, the “aggregation (IC50; nM), human platelets” value came to 66 nM.

Consider B5, for which the “aggregation (IC50; nM), human platelets” value is 110 nM.

In another assay the target is T1, αvβ5 integrin expressed on K562-αvβ5 cells (UniProt P06756 31-1048; P18084 24-799).
T1 construct: whole, on cells
T1 sequence (P06756 31-1048, chain 1 of 2): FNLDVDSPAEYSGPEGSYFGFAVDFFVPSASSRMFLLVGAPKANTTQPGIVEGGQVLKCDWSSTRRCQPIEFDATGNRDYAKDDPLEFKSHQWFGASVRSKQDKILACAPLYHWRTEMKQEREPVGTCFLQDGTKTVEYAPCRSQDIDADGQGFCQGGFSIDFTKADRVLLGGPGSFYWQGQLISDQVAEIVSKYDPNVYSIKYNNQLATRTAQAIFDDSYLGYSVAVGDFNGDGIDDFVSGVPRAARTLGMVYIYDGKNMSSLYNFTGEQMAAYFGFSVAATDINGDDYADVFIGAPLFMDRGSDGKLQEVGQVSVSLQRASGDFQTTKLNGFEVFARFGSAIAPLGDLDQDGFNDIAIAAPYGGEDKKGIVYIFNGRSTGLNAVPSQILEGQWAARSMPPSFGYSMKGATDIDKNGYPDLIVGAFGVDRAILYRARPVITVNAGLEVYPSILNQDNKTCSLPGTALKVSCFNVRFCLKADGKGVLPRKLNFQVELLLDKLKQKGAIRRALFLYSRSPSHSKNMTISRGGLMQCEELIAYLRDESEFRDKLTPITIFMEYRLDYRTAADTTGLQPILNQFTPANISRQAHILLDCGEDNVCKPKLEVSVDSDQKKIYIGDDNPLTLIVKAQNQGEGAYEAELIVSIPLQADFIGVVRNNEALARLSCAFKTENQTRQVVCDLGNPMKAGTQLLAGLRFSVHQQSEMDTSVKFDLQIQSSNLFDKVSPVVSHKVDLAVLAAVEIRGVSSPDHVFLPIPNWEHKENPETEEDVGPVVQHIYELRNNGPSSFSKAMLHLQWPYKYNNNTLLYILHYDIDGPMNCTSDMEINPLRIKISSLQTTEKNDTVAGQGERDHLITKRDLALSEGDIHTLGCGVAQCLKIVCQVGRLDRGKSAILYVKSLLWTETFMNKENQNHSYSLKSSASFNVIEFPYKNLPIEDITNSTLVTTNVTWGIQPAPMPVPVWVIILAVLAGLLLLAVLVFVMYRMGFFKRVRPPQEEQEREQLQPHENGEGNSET
T1 sequence (P18084 24-799, chain 2 of 2): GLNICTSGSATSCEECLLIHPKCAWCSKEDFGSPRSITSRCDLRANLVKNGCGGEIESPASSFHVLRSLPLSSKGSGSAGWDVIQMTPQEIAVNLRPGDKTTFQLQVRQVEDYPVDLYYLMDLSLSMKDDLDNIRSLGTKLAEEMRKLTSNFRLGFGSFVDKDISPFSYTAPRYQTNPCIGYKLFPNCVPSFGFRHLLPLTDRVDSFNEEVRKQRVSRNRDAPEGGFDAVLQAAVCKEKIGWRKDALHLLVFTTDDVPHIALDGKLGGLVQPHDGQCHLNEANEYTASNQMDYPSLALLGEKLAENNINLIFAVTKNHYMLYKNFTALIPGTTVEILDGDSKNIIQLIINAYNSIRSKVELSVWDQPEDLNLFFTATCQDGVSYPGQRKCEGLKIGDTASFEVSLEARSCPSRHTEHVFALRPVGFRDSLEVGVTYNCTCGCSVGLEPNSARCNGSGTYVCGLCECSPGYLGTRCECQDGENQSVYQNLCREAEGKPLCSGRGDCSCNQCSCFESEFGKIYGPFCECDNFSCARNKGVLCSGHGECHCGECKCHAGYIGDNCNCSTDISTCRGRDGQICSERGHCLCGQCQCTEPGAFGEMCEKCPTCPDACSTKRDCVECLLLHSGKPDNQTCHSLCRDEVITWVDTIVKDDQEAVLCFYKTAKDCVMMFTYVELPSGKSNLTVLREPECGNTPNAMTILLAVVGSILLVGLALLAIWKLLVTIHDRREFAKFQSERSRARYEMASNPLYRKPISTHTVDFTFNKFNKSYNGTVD
Briefly: flow cytometry, direct binding to K562-αvβ5 cells.
On to B1, for which the binding result was “no binding (tested: 1 µM)”.

For B2, the binding result is reported as “no binding (tested: 1 µM)”.

For B3, the binding result is “no binding (tested: 1 µM)”.

B4: the binding result was “no binding (tested: 1 µM)”.

Take B5: the binding result was “no binding (tested: 1 µM)”.

In another assay the target is T2, αvβ3 integrin expressed on K562-αvβ3 cells (UniProt P06756 31-1048; P05106 27-788).
T2 construct: whole, on cells
T2 sequence (P06756 31-1048, chain 1 of 2): as the sequence (P06756 31-1048, chain 1 of 2) above
T2 sequence (P05106 27-788, chain 2 of 2): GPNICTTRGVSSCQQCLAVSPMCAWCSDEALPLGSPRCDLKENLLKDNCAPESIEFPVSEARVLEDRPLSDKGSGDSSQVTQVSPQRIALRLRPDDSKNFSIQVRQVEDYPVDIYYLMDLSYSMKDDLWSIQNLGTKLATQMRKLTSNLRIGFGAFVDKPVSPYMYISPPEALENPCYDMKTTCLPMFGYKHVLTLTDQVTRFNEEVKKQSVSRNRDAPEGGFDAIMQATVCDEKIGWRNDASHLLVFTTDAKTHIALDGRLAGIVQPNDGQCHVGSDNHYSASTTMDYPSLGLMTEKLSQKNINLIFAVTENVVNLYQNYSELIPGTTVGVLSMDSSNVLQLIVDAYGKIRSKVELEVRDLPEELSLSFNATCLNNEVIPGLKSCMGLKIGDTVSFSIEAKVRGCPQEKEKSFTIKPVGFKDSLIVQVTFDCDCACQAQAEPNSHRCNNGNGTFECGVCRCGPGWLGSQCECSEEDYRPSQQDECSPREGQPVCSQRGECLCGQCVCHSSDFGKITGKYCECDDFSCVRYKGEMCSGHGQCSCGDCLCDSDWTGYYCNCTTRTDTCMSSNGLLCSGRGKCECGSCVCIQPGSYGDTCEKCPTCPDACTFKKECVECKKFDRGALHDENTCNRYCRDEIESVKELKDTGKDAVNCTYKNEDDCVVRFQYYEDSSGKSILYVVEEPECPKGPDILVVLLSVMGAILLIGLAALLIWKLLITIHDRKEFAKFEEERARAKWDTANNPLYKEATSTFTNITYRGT
Briefly: flow cytometry, peptide titrated on K562-αvβ3 cells. (Flow cytometry measures light scatter and fluorescence of single cells or particles in a stream.)
As a reminder, the Kd is the free concentration of one partner at which half of the binding sites on the other are occupied at equilibrium, for simple one-to-one binding. Higher therefore signals a looser complex. Molecule B3 yielded a Kd of roughly 25 nM.

For the molecule B4, the Kd was roughly 25 nM.

The next assay deals with T3, α5β1 integrin naturally expressed on wild-type K562 cells (UniProt P08648 42-1049; P05556 21-798).
T3 construct: whole, on cells
T3 sequence (P08648 42-1049, chain 1 of 2): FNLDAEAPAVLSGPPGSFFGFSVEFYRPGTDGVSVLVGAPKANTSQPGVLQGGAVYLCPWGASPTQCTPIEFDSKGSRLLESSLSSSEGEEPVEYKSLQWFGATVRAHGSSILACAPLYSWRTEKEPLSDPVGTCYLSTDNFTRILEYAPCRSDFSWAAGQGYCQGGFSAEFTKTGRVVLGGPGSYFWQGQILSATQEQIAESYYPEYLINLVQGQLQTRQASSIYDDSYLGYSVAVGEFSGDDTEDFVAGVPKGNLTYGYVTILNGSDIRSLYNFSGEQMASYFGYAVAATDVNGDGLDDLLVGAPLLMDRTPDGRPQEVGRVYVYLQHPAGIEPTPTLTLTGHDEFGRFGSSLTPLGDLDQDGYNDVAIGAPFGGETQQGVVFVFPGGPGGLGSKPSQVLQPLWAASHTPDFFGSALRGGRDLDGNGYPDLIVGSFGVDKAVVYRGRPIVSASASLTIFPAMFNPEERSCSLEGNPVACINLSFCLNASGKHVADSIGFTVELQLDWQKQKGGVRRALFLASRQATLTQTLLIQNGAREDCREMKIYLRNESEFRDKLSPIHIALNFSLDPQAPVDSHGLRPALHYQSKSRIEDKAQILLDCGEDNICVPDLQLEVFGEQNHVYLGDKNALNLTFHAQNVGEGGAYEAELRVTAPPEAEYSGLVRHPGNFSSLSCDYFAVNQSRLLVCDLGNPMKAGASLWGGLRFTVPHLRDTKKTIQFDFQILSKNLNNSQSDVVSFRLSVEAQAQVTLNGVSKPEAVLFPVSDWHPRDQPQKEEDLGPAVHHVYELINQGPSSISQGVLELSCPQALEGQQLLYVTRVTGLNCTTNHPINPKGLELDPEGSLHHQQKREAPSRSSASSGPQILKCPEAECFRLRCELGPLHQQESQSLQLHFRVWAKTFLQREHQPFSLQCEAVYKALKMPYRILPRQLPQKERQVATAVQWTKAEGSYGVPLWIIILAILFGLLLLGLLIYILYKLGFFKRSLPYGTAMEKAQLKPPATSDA
T3 sequence (P05556 21-798, chain 2 of 2): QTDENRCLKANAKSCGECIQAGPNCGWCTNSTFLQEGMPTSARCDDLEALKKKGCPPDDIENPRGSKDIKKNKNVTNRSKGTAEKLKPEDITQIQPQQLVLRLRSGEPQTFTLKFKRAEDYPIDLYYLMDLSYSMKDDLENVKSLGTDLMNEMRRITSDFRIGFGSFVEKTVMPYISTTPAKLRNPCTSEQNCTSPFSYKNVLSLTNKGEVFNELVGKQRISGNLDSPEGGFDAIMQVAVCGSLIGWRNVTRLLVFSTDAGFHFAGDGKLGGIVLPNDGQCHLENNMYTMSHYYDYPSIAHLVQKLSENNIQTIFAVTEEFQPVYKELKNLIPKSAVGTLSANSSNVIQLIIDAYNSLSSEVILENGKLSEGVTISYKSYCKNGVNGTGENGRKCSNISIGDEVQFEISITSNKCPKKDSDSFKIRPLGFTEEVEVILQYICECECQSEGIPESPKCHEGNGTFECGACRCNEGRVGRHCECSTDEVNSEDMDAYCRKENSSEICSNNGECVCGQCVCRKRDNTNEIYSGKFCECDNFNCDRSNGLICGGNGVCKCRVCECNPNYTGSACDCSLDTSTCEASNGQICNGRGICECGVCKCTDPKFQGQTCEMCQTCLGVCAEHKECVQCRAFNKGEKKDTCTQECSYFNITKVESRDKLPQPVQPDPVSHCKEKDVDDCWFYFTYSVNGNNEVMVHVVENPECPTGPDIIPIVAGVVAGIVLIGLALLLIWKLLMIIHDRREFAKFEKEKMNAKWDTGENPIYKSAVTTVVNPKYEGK
In words: flow cytometry, direct binding to wild-type K562 cells.
Turning to B1, the binding result was “no binding (tested: 1 µM)”.

In the case of B2, the binding result was “no binding (tested: 1 µM)”.

In the case of B3, the binding result is on record as “no binding (tested: 1 µM)”.

Take B4: the binding result was “no binding (tested: 1 µM)”.

Turning to B5, the binding result is on record as “no binding (tested: 1 µM)”.

In a further assay the target is T2, αvβ3 integrin expressed on K562-αvβ3 …. In words: flow cytometry, direct binding to K562-αvβ3 cells, anti-His detection.
With B1, the binding result was “no binding (tested: 1 µM)”.

In the case of B2, the binding result was “no binding (tested: 1 µM)”.

On to B5, for which the binding result is listed as “no binding (tested: 1 µM)”.

Another assay shares this target. Briefly: flow cytometry, peptide titrated on K562-αvβ3 cells, anti-His detection.
B3 displayed a dissociation constant (Kd) of 23 nM.

Consider B4, for which binding was characterised by a dissociation constant (Kd) of 28 nM.

The target of another assay is T4, αIIbβ3 integrin expressed on K562-αIIbβ3 cells (UniProt P08514 32-1039; P05106 27-788).
T4 construct: whole, on cells; also called cell surface expressed αIIbβ3 integrin; GPIIb-IIIa
In words: flow cytometry, peptide titrated on K562-αIIbβ3 cells, anti-His detection.
On to B1, for which the Kd was found to be 87 nM.

B2 yielded a Kd of 59 nM.

Turning to B3, binding was characterised by a dissociation constant (Kd) of 42 nM.

B4 registered a Kd of 70 nM.

On to B5, for which the Kd was found to be 87 nM.
